Source: the supplement of paper PMC7877785
± gives the uncertainty stated by the source.

Test: self-splicing fitness, log relative to wild type (ln ratio); higher = more splicing; Tetrahymena group I intron in knt gene, E. coli kanamycin selection, DiMSum; sequences stand for … in CUCUCU…GGAGGGAAAAGUUAUCAGGCAUGCACCUGGUAGCUAGUCUUUAAACCAAUAGAUUGCAUCGGUUUAAAAGGCAAGACCGUCAAAUUGCGGGAAAGGGGUCAACAGCCGUUCAGUACCAAGUCUCAGGGGAAACUUUGAGAUGGCCUUGCAAAGGGUAUGGUAAUAAGCUGACGGACAUGGUCCUAACCACGCAGCCAAGUCCUAAGUCAACAGAUCUUCUGUUGAUAUGGAUGCAGUUCACAGACUAAAUGUCGGUCGGGGAAGAUGUAUUCUUCUCAUAAGAUAUAGUCGGACCUCUCCUUAAUGGGAGCUAGCGGAUGAAGUGAUGCAACACUGGAGCCGCUGGGAACUAAUUUGUAUGCGAAAGUAUAUUGAUUAGUUUUGGAGUACUCGUGGUCG
Procedure, shortened: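 A randomised library covering all eight P1ex-region intron nucleotides was built with the intron in the knt kanamycin-resistance gene on pET-22b(+) and held in E. coli BL21(DE3). Cells were grown overnight at 37°C or 30°C on LB agar, with or without 25 μg/mL kanamycin, plus 100 μg/mL carbenicillin, 50 μM IPTG and 0.2% rhamnose, and pooled colonies were amplicon-sequenced on an Illumina HiSeq 2500. DiMSum fitness is the error-weighted combination of wild-type-normalised replicate fold changes, kanamycin versus none.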

Sequence	self-splicing fitness (ln) (30 °C)	self-splicing fitness (ln) (37 °C)
CAACAGCAAUAUUACGGACG	-0.191 ± 0.063	0.505 ± 0.082
CAACAGCAAUAUUACGGAUG	-2.53 ± 0.074	-0.732 ± 0.068
CAACAGCAAUAUUACGGGAU	-3.7 ± 0.15	-2.08 ± 0.15
CAACAGCAAUAUUACGGGUC	-4.17 ± 0.17	-2.66 ± 0.14
CAACAGCAAUAUUACGGUCU	-3.01 ± 0.11	-2.07 ± 0.095
CAACAGCAAUAUUACGGUGC	-3.12 ± 0.12	-2.8 ± 0.16
CAACAGCAAUAUUACGUAAC	-3.71 ± 0.23	-2.41 ± 0.24
CAACAGCAAUAUUACGUAAG	-0.309 ± 0.044	0.376 ± 0.055
CAACAGCAAUAUUACGUAAU	-2.46 ± 0.08	-2 ± 0.12
CAACAGCAAUAUUACGUAUU	-3.48 ± 0.17	-1.58 ± 0.11
CAACAGCAAUAUUACGUCUC	-2.24 ± 0.074	-0.669 ± 0.081
CAACAGCAAUAUUACGUCUG	-1.89 ± 0.062	-1.38 ± 0.063
CAACAGCAAUAUUACGUGAU	-2.64 ± 0.075	-2.19 ± 0.1
CAACAGCAAUAUUACGUGGA	-3.08 ± 0.13	-2.08 ± 0.096
CAACAGCAAUAUUACGUGGC	-3.17 ± 0.12	-2.81 ± 0.16
CAACAGCAAUAUUACGUUGA	-3.22 ± 0.12	-3.19 ± 0.15
CAAGAGCAAUAUUACGAAAA	–	-2.78 ± 0.38
CAAGAGCAAUAUUACGACAG	-0.511 ± 0.08	0.045 ± 0.11
CAAGAGCAAUAUUACGAUCG	-0.79 ± 0.071	0.562 ± 0.1
CAAGAGCAAUAUUACGCACG	-1.96 ± 0.11	-0.942 ± 0.12
CAAGAGCAAUAUUACGCAUC	-3.5 ± 0.29	-0.397 ± 0.39
CAAGAGCAAUAUUACGCCCU	-2.51 ± 0.49	-2.72 ± 0.44

Sequence	self-splicing fitness (ln) (30 °C)	self-splicing fitness (ln) (37 °C)
CAAGAGCAAUAUUACGCGUA	-2.2 ± 0.27	-1.95 ± 0.25
CAAGAGCAAUAUUACGGAAU	-3.66 ± 0.26	-2.42 ± 0.23
CAAGAGCAAUAUUACGGACA	-3.46 ± 0.26	-2 ± 0.32
CAAGAGCAAUAUUACGGCGC	-3.56 ± 0.27	-2.17 ± 0.26
CAAGAGCAAUAUUACGGGAU	-2.97 ± 0.17	-2.59 ± 0.31
CAAGAGCAAUAUUACGGGUA	-3.26 ± 0.4	-1.64 ± 0.28
CAAGAGCAAUAUUACGGUGG	-2 ± 0.082	-1.58 ± 0.11
CAAGAGCAAUAUUACGGUUU	-3.5 ± 0.18	-2.33 ± 0.2
CAAGAGCAAUAUUACGUAGG	-1.4 ± 0.069	-1.06 ± 0.1
CAAGAGCAAUAUUACGUCUU	-3.62 ± 0.25	-1.46 ± 0.11
CAAGAGCAAUAUUACGUGUU	-3.47 ± 0.15	-3.58 ± 0.26
CAAGAGCAAUAUUACGUUUU	-3.35 ± 0.16	-2.29 ± 0.15
CAAUAGCAAUAUUACGAAAA	-2.39 ± 0.34	–
CAAUAGCAAUAUUACGAAUG	-1.11 ± 0.076	-0.357 ± 0.098
CAAUAGCAAUAUUACGAGCU	-4.39 ± 0.42	-3.5 ± 0.42
CAAUAGCAAUAUUACGAUAA	-3.24 ± 0.48	-3.1 ± 0.33
CAAUAGCAAUAUUACGCAAA	-3.95 ± 0.3	-2.6 ± 0.27
CAAUAGCAAUAUUACGCAUU	-4.62 ± 0.24	-2.71 ± 0.17
CAAUAGCAAUAUUACGCGAC	-2.2 ± 0.17	-2.54 ± 0.38
CAAUAGCAAUAUUACGCUCC	–	-0.581 ± 0.39
CAAUAGCAAUAUUACGCUUC	-4.65 ± 0.36	-2.95 ± 0.35
